The values below come from patent US20240270857A1 (CHIA TAI TIANQING PHARMACEUTICAL GROUP, published 2024).

In test [1] the target is T1, IL-36R naturally expressed on OVCAR8 cells and on normal human epidermal keratinocytes (NHK cells) (human, UniProt Q9HB29 20-575).
T1 sequence (looked up): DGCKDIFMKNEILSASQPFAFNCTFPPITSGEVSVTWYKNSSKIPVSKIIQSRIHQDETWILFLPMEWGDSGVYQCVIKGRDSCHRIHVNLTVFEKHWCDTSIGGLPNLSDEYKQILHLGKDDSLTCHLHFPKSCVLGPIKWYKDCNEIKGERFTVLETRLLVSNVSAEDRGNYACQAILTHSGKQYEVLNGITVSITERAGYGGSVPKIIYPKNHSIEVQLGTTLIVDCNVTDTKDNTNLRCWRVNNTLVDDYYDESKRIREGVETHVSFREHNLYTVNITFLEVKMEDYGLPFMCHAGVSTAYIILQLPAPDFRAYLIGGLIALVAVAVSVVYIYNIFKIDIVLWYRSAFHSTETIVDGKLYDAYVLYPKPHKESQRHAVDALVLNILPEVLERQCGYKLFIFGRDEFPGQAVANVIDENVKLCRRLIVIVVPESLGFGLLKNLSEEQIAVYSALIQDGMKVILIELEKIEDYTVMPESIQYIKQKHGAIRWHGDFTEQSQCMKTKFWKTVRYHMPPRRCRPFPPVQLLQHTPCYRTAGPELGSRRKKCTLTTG
As to the kind of experiment: cell-based or functional assay.

Test [2] has as its target T2, human IL-36R overexpressed on 293T-hIL36R-NFκB cells (human, UniProt Q9HB29 20-575).
T2 sequence: T1 sequence (looked up)
Briefly: cell-based or functional assay.

Test [3] addresses T3, CynoIL36R-ECD mFc recombinant protein (cynomolgus monkey).
T3 construct: Made in ExpiCHO, purified on Protein A; also called cynomolgus IL-36R extracellular region with mouse antibody heavy chain Fc
T3 chain: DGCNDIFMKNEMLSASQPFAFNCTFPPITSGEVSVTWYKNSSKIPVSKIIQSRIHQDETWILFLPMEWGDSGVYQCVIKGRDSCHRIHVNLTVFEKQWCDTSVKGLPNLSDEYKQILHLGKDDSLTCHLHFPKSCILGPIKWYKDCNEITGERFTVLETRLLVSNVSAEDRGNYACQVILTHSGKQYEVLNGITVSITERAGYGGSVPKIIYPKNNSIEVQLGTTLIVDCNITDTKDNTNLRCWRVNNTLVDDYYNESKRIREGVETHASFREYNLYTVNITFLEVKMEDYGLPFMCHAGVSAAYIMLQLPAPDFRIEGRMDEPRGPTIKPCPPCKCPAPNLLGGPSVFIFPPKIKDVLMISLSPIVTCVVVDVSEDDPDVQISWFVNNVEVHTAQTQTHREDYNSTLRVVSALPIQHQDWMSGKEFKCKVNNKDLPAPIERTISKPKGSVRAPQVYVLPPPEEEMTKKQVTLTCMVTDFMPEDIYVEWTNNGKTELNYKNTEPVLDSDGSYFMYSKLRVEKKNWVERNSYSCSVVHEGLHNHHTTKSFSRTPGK
As to the kind of experiment: ELISA, plate coated with CynoIL36R-ECD mFc, HRP-protein A/G, OD450. The protocol: The binding activity of anti-IL-36R antibodies to IL-36R was analyzed by ELISA using human IL-1Rrp2/IL-1R6 protein, His Tag (ACROBiosystems, IL2-H52H6) and CynoIL36R-ECD mFc (for detection of chimeric and humanized antibodies), and hIL36R-ECD hFc and CynoIL36R-ECD hFc protein (for detection of hybridoma antibodies) as antigens. A 96-well plate (Costar, 9018) was coated with 2 μg/mL antigen at 100 μL/well and incubated overnight at 4° C. After the 96-well plate was washed with a washing buffer (PBS containing 0.05% v/v Tween 20), a blocking buffer (PBS containing 2% bovine serum albumin) was added for blocking at 37° C. for 2 h. After the 96-well plate was washed with the washing buffer, 100 μL of the gradient diluted anti-IL-36R antibody of the present disclosure or the reference antibody BI655130 (the initial concentration of the antibody was 66 nM, 4-fold gradient dilution) was added to each well, and the plate was incubated at room temperature for 1 h. After the 96-well plate was washed with the washing buffer, 100 μL of horseradish peroxidase-conjugated recombinant protein A/G (TheroScientific, 32490) was added to each well, and the plate was incubated at room temperature for 1 h. After the 96-well plate was washed with the washing buffer, 100 μL of a TMB solution (Thermo, 00-4201-56) was added to each well, and the plate was incubated at room temperature for 2 min. Finally, 100 μL of a stop solution (2 N H₂SO₄) was added to each well to stop the reaction. Absorbance was read at 450 nm using a microplate reader (PE, Envision), the resulting data was analyzed using GraphPad Prism, and EC₅₀ was calculated. Binding EC₅₀ of the chimeric anti-IL-36R antibodies to hIL-36R in an ELISA assay is shown in FIG. 1. and binding EC₅₀ of the chimeric anti-IL-36R antibodies to CynoIL-36R in an ELISA assay is shown in FIG. 2. The binding of BI655130 is shown as a control, and the binding of IgG4 is shown as a negative control.

For orientation: EC50 means the concentration at which the effect is half-maximal.

B1: hz72C1-2.2 (antibody, human IgG4 S228P, kappa)
heavy: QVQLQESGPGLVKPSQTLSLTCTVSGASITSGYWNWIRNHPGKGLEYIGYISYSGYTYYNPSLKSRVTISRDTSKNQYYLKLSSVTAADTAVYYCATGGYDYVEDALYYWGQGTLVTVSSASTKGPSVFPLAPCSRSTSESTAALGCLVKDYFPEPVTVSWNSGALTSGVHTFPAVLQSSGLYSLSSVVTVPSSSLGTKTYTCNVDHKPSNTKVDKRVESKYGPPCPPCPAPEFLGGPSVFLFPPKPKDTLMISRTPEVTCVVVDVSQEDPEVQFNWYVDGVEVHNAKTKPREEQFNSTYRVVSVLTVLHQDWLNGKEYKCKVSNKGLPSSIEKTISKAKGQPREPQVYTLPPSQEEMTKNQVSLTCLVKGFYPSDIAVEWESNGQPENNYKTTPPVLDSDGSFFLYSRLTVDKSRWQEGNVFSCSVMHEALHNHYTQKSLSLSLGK
light: DIQMTQSPSSLSASVGDRVTITCRASSNVRYMYWYQQKPGKAPKLWIYLTSNLASGVPSRFSGSGSGTSYTLTISSLQPEDFATYYCQQYTTSPYTFGQGTKLEIKRTVAAPSVFIFPPSDEQLKSGTASVVCLLNNFYPREAKVQWKVDNALQSGNSQESVTEQDSKDSTYSLSSTLTLSKADYEKHKVYACEVTHQGLSSPVTKSFNRGEC
notes: Humanized, human IgG4 / kappa
On to B1, for which, in test [1], the “IC50 (M); hIL36α; IL-8 production” value was determined as 1.94e-10 M, the “IC50 (M); hIL36αβγ; IL-8 production” value is 2.3e-10 M, the “IC50 (M); hIL36β; IL-8 production” value amounted to 1.45e-10 M and the “IC50 (M); hIL36γ; IL-8 production” value stood at 7.6e-11 M. For the same molecule, in test [1], the “Maximum inhibition rate %; hIL36α; IL-8 production” value was 98.5%, the “Maximum inhibition rate %; hIL36αβγ; IL-8 production” value worked out at 97.1%, the “Maximum inhibition rate %; hIL36β; IL-8 production” value is 98% and the “Maximum inhibition rate %; hIL36γ; IL-8 production” value was 97.7%. For the same molecule, in test [2], the “IC50 (M); hIL36α; NFκB-luciferase” value was 1.61e-08 M, the “IC50 (M); hIL36αβγ; NFκB-luciferase” value is about 4.44e-08 M, the “IC50 (M); hIL36β; NFκB-luciferase” value was found to be 4.66e-09 M and the “IC50 (M); hIL36γ; NFκB-luciferase” value came to 3.68e-08 M. For the same molecule, in test [2], the “Maximum inhibition rate %; hIL36α; NFκB-luciferase” value was determined as 92%, the “Maximum inhibition rate %; hIL36αβγ; NFκB-luciferase” value is 77.9%, the “Maximum inhibition rate %; hIL36β; NFκB-luciferase” value is 94.7% and the “Maximum inhibition rate %; hIL36γ; NFκB-luciferase” value came to 87.9%. Besides, the EC50 in test [3] amounted to 4.87 nM.

B2: hz72C1-2.3 (antibody, human IgG4 S228P, kappa)
heavy: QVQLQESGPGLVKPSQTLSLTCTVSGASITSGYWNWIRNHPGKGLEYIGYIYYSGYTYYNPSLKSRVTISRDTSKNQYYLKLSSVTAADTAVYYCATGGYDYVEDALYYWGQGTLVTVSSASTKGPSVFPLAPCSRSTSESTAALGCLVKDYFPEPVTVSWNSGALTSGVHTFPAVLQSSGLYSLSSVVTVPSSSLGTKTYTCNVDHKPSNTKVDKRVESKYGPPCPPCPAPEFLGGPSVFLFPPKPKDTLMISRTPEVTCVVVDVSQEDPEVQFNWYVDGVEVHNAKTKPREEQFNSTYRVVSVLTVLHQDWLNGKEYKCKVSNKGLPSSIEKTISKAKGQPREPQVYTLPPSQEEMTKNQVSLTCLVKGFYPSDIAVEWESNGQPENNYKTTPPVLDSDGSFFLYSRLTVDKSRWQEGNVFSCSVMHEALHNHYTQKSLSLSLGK
light: B1 light
notes: Humanized, human IgG4 / kappa
Regarding B2, in test [1], the “IC50 (M); hIL36α; IL-8 production” value stood at 2.17e-10 M, the “IC50 (M); hIL36αβγ; IL-8 production” value turned out to be 3.58e-10 M, the “IC50 (M); hIL36β; IL-8 production” value worked out at 1.67e-10 M and the “IC50 (M); hIL36γ; IL-8 production” value came to 5.31e-11 M. In addition, in test [1], the “Maximum inhibition rate %; hIL36α; IL-8 production” value amounted to 98.1%, the “Maximum inhibition rate %; hIL36αβγ; IL-8 production” value came to 95%, the “Maximum inhibition rate %; hIL36β; IL-8 production” value was found to be 97.9% and the “Maximum inhibition rate %; hIL36γ; IL-8 production” value was found to be 97.7%. Besides, in test [2], the “IC50 (M); hIL36α; NFκB-luciferase” value was found to be 1.61e-08 M, the “IC50 (M); hIL36αβγ; NFκB-luciferase” value is about 1.39e-08 M, the “IC50 (M); hIL36β; NFκB-luciferase” value came to 2.93e-09 M and the “IC50 (M); hIL36γ; NFκB-luciferase” value amounted to 2.94e-08 M. In addition, in test [2], the “Maximum inhibition rate %; hIL36α; NFκB-luciferase” value stood at 90.8%, the “Maximum inhibition rate %; hIL36αβγ; NFκB-luciferase” value was determined as 66.3%, the “Maximum inhibition rate %; hIL36β; NFκB-luciferase” value turned out to be 83.7% and the “Maximum inhibition rate %; hIL36γ; NFκB-luciferase” value was 89%. Also, the EC50 in test [3] was 6.38 nM.
